Experimental data as given in PMC4624198.

Target: T1, HTP-3 (G490K, G728K), Strep-tagged (C. elegans), O01820
T1 chain: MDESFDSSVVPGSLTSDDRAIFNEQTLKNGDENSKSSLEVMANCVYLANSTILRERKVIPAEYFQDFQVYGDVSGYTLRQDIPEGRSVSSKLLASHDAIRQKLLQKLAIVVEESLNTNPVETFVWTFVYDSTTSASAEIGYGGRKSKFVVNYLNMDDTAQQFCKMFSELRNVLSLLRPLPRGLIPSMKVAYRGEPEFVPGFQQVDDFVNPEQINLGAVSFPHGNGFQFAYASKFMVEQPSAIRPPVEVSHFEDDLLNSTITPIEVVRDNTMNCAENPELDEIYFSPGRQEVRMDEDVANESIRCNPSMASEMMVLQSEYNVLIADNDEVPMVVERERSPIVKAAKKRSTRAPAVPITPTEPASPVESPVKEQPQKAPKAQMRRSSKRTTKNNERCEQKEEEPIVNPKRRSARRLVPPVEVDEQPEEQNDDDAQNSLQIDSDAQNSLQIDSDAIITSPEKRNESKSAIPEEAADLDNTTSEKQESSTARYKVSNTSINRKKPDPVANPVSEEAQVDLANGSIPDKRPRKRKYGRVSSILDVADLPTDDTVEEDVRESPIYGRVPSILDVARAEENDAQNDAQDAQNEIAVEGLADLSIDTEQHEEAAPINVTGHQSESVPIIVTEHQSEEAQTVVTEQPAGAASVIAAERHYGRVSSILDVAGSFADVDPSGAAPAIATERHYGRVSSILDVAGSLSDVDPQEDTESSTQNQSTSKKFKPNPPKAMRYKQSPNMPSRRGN
Test: pull-down
Conditions: remark: other sources report otherwise

B1: HTP-1, untagged, Q20305 1-352 (natural protein)
chain: MAPLETIYDESLNKSADSIDDKKWSKLFPRIVSDPDRSSNFMTRAIYVAFSAVLRNRNILGQEYFTKNYITEKLKCMTLCFRNPRSNQIAQLLRNAGDATKDGFLKEVSLVITNNEGDLEAIEVFSMKFIYFENGGVVARLSTDKNGQEDPHFAKLAQLVYEGGDSVRDQMVTIVRSVQFLCTKVLEPLPEEFTANFRLEYTNDAPSNFRIDGFEDSSTFYTLPDDIQSATIGHLRPGCHAANMECWSMLMSDSYEAELTLKRHLDKVSDRHGFNPVNVLYKSFNSEDSDTSLSQATTESVNDQGGNETSPVDDITESLEKAQMSPIQTRPTTRRGADGSKTRSSPYSRSCK
HTP-1 bound, percent of the amount bound to the wild-type complex: 10%
